Measured values as given in PMC11408855, “The structure of the SufS–SufE complex reveals interactions driving protected persulfide transfer in iron-sulfur cluster biogenesis” (The Journal of Biological Chemistry, 2024).

Target: T1, D346A EcSufS, C-terminal his-tagged (Escherichia coli, UniProt P77444 1-406, D346A, PLP (pyridoxal 5'-phosphate) cofactor)
T1 construct: EcSufS of Escherichia coli, UniProt P77444, with D346A; also called D346A SufS; source: E. coli BL21(DE3)Δsuf, pET44, autoinduction, purified (Ni2+ HisTrap HP); not shown: His tag, C-terminal, kept
T1 sequence: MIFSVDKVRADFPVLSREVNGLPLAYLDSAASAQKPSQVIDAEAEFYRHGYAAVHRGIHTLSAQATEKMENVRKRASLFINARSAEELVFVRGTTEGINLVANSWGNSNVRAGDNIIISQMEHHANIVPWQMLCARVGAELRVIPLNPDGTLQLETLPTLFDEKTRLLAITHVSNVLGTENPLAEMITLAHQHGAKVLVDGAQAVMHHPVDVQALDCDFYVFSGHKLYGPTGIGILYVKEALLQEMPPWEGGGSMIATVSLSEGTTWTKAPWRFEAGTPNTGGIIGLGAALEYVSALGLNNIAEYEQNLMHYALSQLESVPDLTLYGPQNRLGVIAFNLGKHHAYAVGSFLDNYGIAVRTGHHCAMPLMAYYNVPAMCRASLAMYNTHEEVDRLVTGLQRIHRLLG
Experiment: fluorescence polarisation; 100 nM BODIPY-FL-labeled EcSufE titrated with EcSufS; 50 mM Mops pH 8.0, 150 mM NaCl, 0.1 mg/ml bovine serum albumin, 25 °C, 30 min; absence of cysteine; apparent KD
Details: both partners purified

B1: BODIPY-FL-labeled C51A/E107C EcSufE (natural protein, Escherichia coli)
chain: MALLPDKEKLLRNFLRCANWEEKYLYIIELGQRLPELRDEDRSPQNSIQGAQSQVWIVMRQNAQGIIELQGDSDAAIVKGLIAVVFILYDQMTPQDIVNFDVRPWFCKMALTQHLTPSRSQGLEAMIRAIRAKAAALS
modifications: BODIPY-FL maleimide label (labeling efficiency 60 to 80%)
notes: EcSufE, transpersulfurase SufE of Escherichia coli, UniProt P76194, with C51A and E107C; also called "WT" EcSufE (double mutant background); C51A/E107C EcSufE control
- Kd: > 40 µM
